In article PMC11700839:

Biological target: ETS1 transcription factor (endogenous, FP-RMS cells) (human (endogenous in Rh30 and Rh41)) (UniProt P14921)
Assay: co-IP; endogenous proteins from Rh30 and Rh41 cells, IP with ETS1 antibody (rabbit IgG as negative control), immunoblot; also with Ethidium Bromide or Benzonase in the IP; also cells pre-treated 16 hours with 1 µM YK-4-279 or DMSO and the same included in the IP reaction, recovery by densitometry normalized to ETS1

Sequence of UniProt P14921 (P14921 whole entry): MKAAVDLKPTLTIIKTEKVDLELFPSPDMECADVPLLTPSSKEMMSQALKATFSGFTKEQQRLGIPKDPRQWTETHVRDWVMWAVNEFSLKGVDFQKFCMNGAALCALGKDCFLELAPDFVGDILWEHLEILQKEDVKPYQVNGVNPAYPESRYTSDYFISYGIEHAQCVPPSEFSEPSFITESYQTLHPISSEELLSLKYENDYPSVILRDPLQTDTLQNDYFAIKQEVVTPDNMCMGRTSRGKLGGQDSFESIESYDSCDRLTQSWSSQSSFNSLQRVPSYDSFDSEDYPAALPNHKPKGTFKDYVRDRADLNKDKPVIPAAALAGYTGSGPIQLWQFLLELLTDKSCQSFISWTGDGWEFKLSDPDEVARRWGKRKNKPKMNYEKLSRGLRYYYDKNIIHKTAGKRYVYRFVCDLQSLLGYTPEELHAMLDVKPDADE

Substance: PAX3-FOXO1 oncofusion (endogenous, FP-RMS cells) (natural protein)
- co-immunoprecipitated PAX3-FOXO1 with 1 µM YK-4-279, percent of DMSO control (Rh30 cells) (% of DMSO control): 50
- co-immunoprecipitated PAX3-FOXO1 with 1 µM YK-4-279, percent of DMSO control (Rh41 cells) (% of DMSO control): 65
